Eight molecules from patent publication US20240115722A1 (RUTGERS THE STATE UNIVERSITY OF NEW JERSEY, published 2024) can be followed below.

Read-outs that look alike come from different tables or passages of the source.

As a reminder, the EC50 is the concentration at which the effect is half-maximal. The term Kd denotes a measure of binding affinity in units of concentration. What is called koff is the first-order rate constant of dissociation. Broadly, the kon is the second-order rate constant of association. The EC50 (read off the curve) is the concentration at which the effect is half-maximal.

Assay [1] deals with T1, human EPH receptor A5 (EphA5) expressed on cells (human, UniProt P54756 25-1037).
T1 construct: Cell line (H460 stably expressing EphA5; HEK-293T transfected with EPHA5 clone or wild-type construct; lung cancer lines with endogenous or variable expression); also called cell-surface EphA5; wild-type target protein
The experiment in a line: flow cytometry on H460 (EphA5+) cells, starting assay concentration 10 µg/mL. Here is the method:
Samples were prepared at a starting concentration of 10 μg/ml in FACS buffer and underwent a four-fold seven point serial dilution for testing with H460 cells and a three-fold three point serial dilution for the H226 cells. Cell pellets were resuspended in 100 μl of the serially diluted samples and incubated at 4° C. for 30 minutes. After the incubation, cells were pelleted, washed twice with 100 μl of FACS buffer and resuspended in either Alexa Fluor 647 anti-mouse or anti-human (Thermo Fisher) diluted to 5 μg/ml in FACS buffer. After incubation at 4° C. for 30 minutes, cells were pelleted, washed twice with 100 μl of FACS buffer and resuspended in 200 μl per well 1×BD CellFix solution (BD Pharmingen, Berkshire, UK). Median fluorescence intensity (MFI) was measured using an Attune NxT Flow Cytometer (Thermo Fisher, Loughborough, UK) and 10,000 gated events were acquired per sample. For data analysis, live cell populations were gated based on the forward and side scatter dot plot allowing the Alexa Fluor 647 MFI values to be measured in the RL1 channel.
For orientation: A flow cytometer gives signals particle by particle.

Assay [2] has as its target T2, recombinant human EphA5 (rhEphA5) antigen (human, UniProt P54756 25-573).
T2 construct: also called human EphA5 (R and D systems, Cat. No. 3036-A5); recombinant EphA5
The assay is described as follows: SPR multi-cycle kinetics (Biacore T200), purified IgG captured on anti-human IgG CM5 chip, recombinant EphA5 as analyte, 1:1 fit. The protocol: HBS-P+(GE Healthcare, Uppsala, Sweden), supplemented with 1% BSA w/v (Sigma, Dorset, UK) was used as running buffer as well as for ligand and analyte dilutions. Purified lead antibodies were diluted to 0.5 μg/mL in running buffer and at the start of each cycle, loaded onto Fc2, Fc3 and Fc4 of an anti-human IgG CM5 sensor chip (GE Healthcare, Little Chalfont, UK). […] The surface was then allowed to stabilize.
Multi-cycle kinetic data was obtained using recombinant EphA5 as the analytes injected at a flow rate of 30 μl/min to minimize any potential mass transfer effects. […] For each concentration, the association phases were monitored for 210 seconds and the dissociation phase was measured for 900 seconds. Regeneration of the sensor chip surface was conducted between cycles using two injections of 3 M MgCl2. Multiple repeats of a blank and of EphA5 were programmed into the kinetic run in order to check the stability of both the surface and analyte over the kinetic cycles.
The signal from the reference channel Fc1 (no IgG captured) was subtracted from that of Fc2, Fc3 and Fc4 to correct for bulk effect and differences in non-specific binding to a reference surface. The signal from each IgG blank run (IgG captured but no antigen) was subtracted to correct for differences in surface stability. The double referenced sensorgrams were fitted with the Langmuir (1:1) binding model where the closeness of fit of the data to the model is evaluated using the Chi square value which describes the deviation between the experimental and fitted (observed and expected) curves. The fitting algorithm seeks to minimize the Chi square value.

The target of assay [3] is T2, recombinant human EphA5 (rhEphA5) …. The assay is described as follows: SPR single-cycle kinetics (Biacore T200), IgG from HEK supernatant captured on anti-human IgG CM5 chip, rhEphA5 as analyte, 1:1 fit. The arrangement: Relative KD: reference not given here. The protocol: Kinetic analysis was carried out on a Biacore T200. Each antibody was captured on a CM5 chip coupled with an anti-human IgG using standard amine chemistry before increasing concentrations of antigen were injected and a single off-rate was determined.
Kinetic experiments were performed at 25° C. on a Biacore T200 running Biacore T200 Control software V2.0.1 and Evaluation software V3.0 (Cytiva, Uppsala, Sweden).
HBS-P+ (Cytiva, Uppsala, Sweden), supplemented with 1% BSA (Sigma, Dorset, UK) was used as running buffer as well as for ligand and analyte dilutions. Supernatants containing IgG were diluted in running buffer to 1 μg/mL. At the start of each cycle, antibodies were loaded onto Fc2, Fc3 and Fc4 of an anti-human IgG CM5 sensor chip (Cytiva, Little Chalfont, UK). Ig were captured at a flow rate of […] to give an immobilization level (RL) of ˜60 RU. The surface was then allowed to stabilize.

Assay [4] has the same target. The assay is described as follows: SPR (Biacore T200), IgG captured on anti-human IgG chip, rhEphA5 as analyte, 1:1 fit; table does not say single- or multi-cycle. (SPR reads the build-up and loss of mass on a sensor chip optically.)
In assay [5] the target is T1, human EPH receptor A5 (EphA5) expressed …. The experiment in a line: flow cytometry on H460 (EphA5+) cells, goat anti-mouse Alexa Fluor 647 detection.
Assay [6] addresses T3, FCGR1A (human, UniProt P12314).
T3 construct: clone overexpressed in live cells from an expression plasmid; Labelled point above the threshold in the Membrane Proteome Array plots of both H4K3 and H5K3
The experiment in a line: Membrane Proteome Array screen, human membrane protein clones expressed in cells, flow cytometry (Table E4: HEK-293T, antibody 20 µg/ml).

Assay [7] has as its target T3, FCGR1A. The description is as above. This is another data set of the same source.

T1 sequence (P54756 25-1037 limits assumed): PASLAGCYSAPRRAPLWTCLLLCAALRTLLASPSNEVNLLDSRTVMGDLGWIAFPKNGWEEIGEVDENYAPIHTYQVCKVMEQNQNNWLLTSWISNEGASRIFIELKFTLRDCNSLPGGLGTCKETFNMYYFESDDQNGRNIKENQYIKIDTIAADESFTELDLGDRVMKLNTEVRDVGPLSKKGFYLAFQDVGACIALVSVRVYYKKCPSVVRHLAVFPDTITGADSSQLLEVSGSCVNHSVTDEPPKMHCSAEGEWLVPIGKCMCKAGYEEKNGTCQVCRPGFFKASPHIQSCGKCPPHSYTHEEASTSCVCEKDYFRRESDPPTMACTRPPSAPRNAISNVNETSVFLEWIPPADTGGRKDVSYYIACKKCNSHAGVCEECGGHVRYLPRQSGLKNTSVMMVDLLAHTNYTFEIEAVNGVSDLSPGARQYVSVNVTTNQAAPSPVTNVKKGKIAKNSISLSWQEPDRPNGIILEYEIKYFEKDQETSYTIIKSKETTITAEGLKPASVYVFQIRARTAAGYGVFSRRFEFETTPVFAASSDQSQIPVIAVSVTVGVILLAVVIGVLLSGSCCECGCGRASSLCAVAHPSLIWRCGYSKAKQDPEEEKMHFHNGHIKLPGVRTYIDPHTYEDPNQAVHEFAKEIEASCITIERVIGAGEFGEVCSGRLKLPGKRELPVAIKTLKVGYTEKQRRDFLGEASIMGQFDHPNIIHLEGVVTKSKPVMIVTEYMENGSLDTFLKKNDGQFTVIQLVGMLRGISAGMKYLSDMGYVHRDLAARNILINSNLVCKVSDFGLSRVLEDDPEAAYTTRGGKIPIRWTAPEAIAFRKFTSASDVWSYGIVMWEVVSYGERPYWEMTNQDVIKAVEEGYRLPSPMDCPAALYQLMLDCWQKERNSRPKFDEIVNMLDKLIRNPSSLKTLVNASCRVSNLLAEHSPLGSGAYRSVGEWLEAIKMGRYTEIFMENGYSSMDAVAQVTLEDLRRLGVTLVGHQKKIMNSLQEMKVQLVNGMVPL
T2 sequence (P54756 25-573 limits assumed): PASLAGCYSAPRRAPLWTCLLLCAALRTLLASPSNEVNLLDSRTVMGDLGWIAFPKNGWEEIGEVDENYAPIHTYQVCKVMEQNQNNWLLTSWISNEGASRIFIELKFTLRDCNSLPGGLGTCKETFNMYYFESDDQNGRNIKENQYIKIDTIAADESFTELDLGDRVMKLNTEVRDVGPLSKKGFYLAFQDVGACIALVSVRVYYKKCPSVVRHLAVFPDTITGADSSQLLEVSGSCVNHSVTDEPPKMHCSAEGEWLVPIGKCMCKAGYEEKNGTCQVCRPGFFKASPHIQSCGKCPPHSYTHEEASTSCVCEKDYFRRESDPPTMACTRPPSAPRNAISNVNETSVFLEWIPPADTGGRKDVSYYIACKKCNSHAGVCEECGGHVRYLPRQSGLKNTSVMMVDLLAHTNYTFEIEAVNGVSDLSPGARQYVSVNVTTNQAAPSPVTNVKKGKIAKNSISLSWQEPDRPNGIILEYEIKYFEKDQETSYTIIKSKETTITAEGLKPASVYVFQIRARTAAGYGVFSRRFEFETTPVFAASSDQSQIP
T3 sequence (P12314 16-374 limits assumed): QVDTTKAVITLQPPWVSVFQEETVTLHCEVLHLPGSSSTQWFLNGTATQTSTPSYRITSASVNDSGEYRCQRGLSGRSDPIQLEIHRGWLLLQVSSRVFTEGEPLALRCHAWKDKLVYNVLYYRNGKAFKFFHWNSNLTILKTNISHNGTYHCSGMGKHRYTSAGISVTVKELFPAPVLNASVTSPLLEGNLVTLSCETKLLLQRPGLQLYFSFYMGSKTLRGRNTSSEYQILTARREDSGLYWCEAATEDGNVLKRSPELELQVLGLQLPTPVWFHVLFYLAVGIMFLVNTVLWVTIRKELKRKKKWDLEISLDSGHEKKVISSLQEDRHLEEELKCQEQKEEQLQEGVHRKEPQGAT

B1: VH4/VK4 humanized 11C12 antibody (antibody, human IgG1, kappa, V domains shown)
VH: EVQLVESGGGLVQPGGSLKLSCAASGFTFSTFGIHWVRQAPGKGLEWVAYISGASTTIYYADTVKGRFTISRDNSKNTLYLQMNSLRAEDTAVYYCARYGTSFPYGLDYWGQGTLVTVSS
VL: DIVMTQSPDSLAVSLGERATINCKSSQSVDYDGDSYMNWYQQKPGKAPKLLIYGASNLESGIPDRFSGSGSGTDFTLTISRLEPEDAASYYCQQSNEDPFTFGQGTKLEIKR
notes: Human IgG1/kappa; lead variant, tested as HEK supernatant and as protein purified from CHO; also called H4K4
In the case of B1, in assay [1], the midpoint of the response, the EC50, lay at 0.017 µg/mL and the “Max. Binding (MFI)” value worked out at 37500 MFI. In addition, in assay [2], the dissociation constant (Kd) worked out at 1.04 nM, the “Relative KD” value was found to be 0.67 and the koff stood at 0.00132 s⁻¹. Further, in assay [3], the Kd was 1.05 nM, the “Relative KD” value is 0.79 and the koff amounted to 0.0014 s⁻¹.

B2: chimeric VH0/VK0 antibody (murine 11C12 variable regions, human IgG1/kappa constant regions) (antibody, V domains shown)
VH: EVTLKESGGGLVQPGGSRKLSCAASGFTFSTFGIHWVRQAPEKGLEWVAYISGASTTIYYADTVKGRFTISRDNPKNTLFLQMTSLRSEDTAMYYCARYGTSFPYGLDYWGQGTSVTVSS
VL: DIVMTQSPGSLAVSLGQRATISCKASQSVDYDGDSYMNWYQQKPGQPPKLLIYGASNLESGIPARFSGSGSGTDFTLNIHPVEEEDAASYYCQQSNEDPFTFGSGTKLEIKR
notes: also called chimeric antibody
As for B2, in assay [1], the EC50 worked out at 0.015 µg/mL and the “Max. Binding (MFI)” value was 35400 MFI. In assay [4], the Kd turned out to be 1.56 nM, the koff amounted to 0.0015 s⁻¹ and the association rate constant (kon) stood at 965000 M⁻¹ s⁻¹. Besides, in assay [3], the dissociation constant Kd worked out at 1.33 nM, the “Relative KD” value turned out to be 1 and the koff worked out at 0.00153 s⁻¹.

B3: anti-human EphA5 monoclonal murine antibody 11C12 (antibody, V domains shown)
VH: EVTLKESGGGLVQPGGSRKLSCAASGFTFSTFGIHWVRQAPEKGLEWVAYISGASTTIYYADTVKGRFTISRDNPKNTLFLQMTSLRSEDTAMYYCARYGTSFPYGLDYWGQGTSVTVSS
VL: DIVMTQSPGSLAVSLGQRATISCKASQSVDYDGDSYMNWYQQKPGQPPKLLIYGASNLESGIPARFSGSGSGTDFTLNIHPVEEEDAASYYCQQSNEDPFTFGSGTKLEIK
notes: Full murine antibody; also called murine 11C12; mouse 11C12
B3: the 50% effective concentration (EC50 (read off the curve)) in assay [5] was approximately 0.05 µg/mL. Also, in assay [1], the concentration for a half-maximal effect (EC50) was found to be 0.025 µg/mL and the “Max. Binding (MFI)” value worked out at 27300 MFI.

B4: VH3/VK4 humanized 11C12 antibody (antibody, human IgG1, kappa)
heavy: not shown
light: DIVMTQSPDSLAVSLGERATINCKSSQSVDYDGDSYMNWYQQKPGKAPKLLIYGASNLESGIPDRFSGSGSGTDFTLTISRLEPEDAASYYCQQSNEDPFTFGQGTKLEIKRTVAAPSVFIFPPSDEQLKSGTASVVCLLNNFYPREAKVQWKVDNALQSGNSQESVTEQDSKDSTYSLSSTLTLSKADYEKHKVYACEVTHQGLSSPVTKSFNRGEC
notes: Human IgG1/kappa; lead variant, tested as HEK supernatant and as protein purified from CHO; also called H3K4
Consider B4, for which, in assay [1], a half-maximal response (EC50) required 0.018 µg/mL and the “Max. Binding (MFI)” value was found to be 36500 MFI. In assay [2], the Kd was determined as 1.08 nM, the “Relative KD” value amounted to 0.69 and the koff is 0.00142 s⁻¹. For the same molecule, in assay [3], the Kd was determined as 0.956 nM, the “Relative KD” value is 0.72 and the koff worked out at 0.00128 s⁻¹.

B5: VH5/VK4 humanized 11C12 antibody (antibody, human IgG1, kappa, V domains shown)
VH: EVQLVESGGGLVQPGGSLKLSCAASGFTFSTFGIHWVRQAPGKGLEWVAYISGASTTIYYADSVKGRFTISRDNSKNTLYLQMNSLRAEDTAVYYCARYGTSFPYGLDYWGQGTLVTVSS
VL: DIVMTQSPDSLAVSLGERATINCKSSQSVDYDGDSYMNWYQQKPGKAPKLLIYGASNLESGIPDRFSGSGSGTDFTLTISRLEPEDAASYYCQQSNEDPFTFGQGTKLEIKR
notes: Human IgG1/kappa; lead variant, tested as HEK supernatant and as protein purified from CHO; also called H5K4
As to B5, in assay [1], the EC50 worked out at 0.018 µg/mL and the “Max. Binding (MFI)” value is 35900 MFI. Also, in assay [2], the Kd turned out to be 1.04 nM, the “Relative KD” value was 0.67 and the dissociation rate constant (koff) came out at 0.00128 s⁻¹. Moreover, in assay [3], the Kd was determined as 1.04 nM, the “Relative KD” value came out at 0.78 and the off-rate (koff) worked out at 0.00141 s⁻¹.

B6: VH5/VK3 humanized 11C12 antibody (antibody, human IgG1, kappa)
heavy: not shown
light: DIVMTQSPDSLAVSLGERATINCKASQSVDYDGDSYMNWYQQKPGKAPKLLIYGASNLESGIPDRFSGSGSGTDFTLTISRLEPEDAAVYYCQQSNEDPFTFGQGTKLEIKRTVAAPSVFIFPPSDEQLKSGTASVVCLLNNFYPREAKVQWKVDNALQSGNSQESVTEQDSKDSTYSLSSTLTLSKADYEKHKVYACEVTHQGLSSPVTKSFNRGEC
notes: Human IgG1/kappa; lead variant, tested as HEK supernatant and as purified protein; also called H5K3; EPHA5 H5K3
Turning to B6, in assay [1], the concentration for a half-maximal effect (EC50) worked out at 0.019 µg/mL and the “Max. Binding (MFI)” value came to 36500 MFI. Moreover, in assay [4], the Kd was determined as 1.11 nM, the dissociation rate constant (koff) amounted to 0.00135 s⁻¹ and the kon was found to be 1.21e+06 M⁻¹ s⁻¹. Moreover, the binding result in the assay with FCGR1A [6] is “binds”. In assay [3], the equilibrium dissociation constant (Kd) was found to be 1.03 nM, the “Relative KD” value was 0.77 and the off-rate (koff) is 0.0014 s⁻¹.

B7: VH4/VK3 humanized 11C12 antibody (antibody, human IgG1, kappa)
heavy: not shown
light: DIVMTQSPDSLAVSLGERATINCKASQSVDYDGDSYMNWYQQKPGKAPKLLIYGASNLESGIPDRFSGSGSGTDFTLTISRLEPEDAAVYYCQQSNEDPFTFGQGTKLEIKRTVAAPSVFIFPPSDEQLKSGTASVVCLLNNFYPREAKVQWKVDNALQSGNSQESVTEQDSKDSTYSLSSTLTLSKADYEKHKVYACEVTHQGLSSPVTKSFNRGEC
notes: Human IgG1/kappa; lead variant, tested as HEK supernatant and as purified protein; also called H4K3; EPHA5 H4K3
As to B7, in assay [1], the response was half-maximal at 0.018 µg/mL (EC50) and the “Max. Binding (MFI)” value was found to be 36700 MFI. Besides, the binding result in the assay with FCGR1A [7] is on record as “binds”. In assay [2], the dissociation constant Kd came to 0.937 nM, the “Relative KD” value stood at 0.6 and the koff turned out to be 0.00139 s⁻¹. For the same molecule, in assay [3], the Kd stood at 1.04 nM, the “Relative KD” value stood at 0.78 and the off-rate (koff) came out at 0.00137 s⁻¹.

B8: VH5/VK2 humanized 11C12 antibody (antibody, human IgG1, kappa, V domains shown)
VH: EVQLVESGGGLVQPGGSLKLSCAASGFTFSTFGIHWVRQAPGKGLEWVAYISGASTTIYYADSVKGRFTISRDNSKNTLYLQMNSLRAEDTAVYYCARYGTSFPYGLDYWGQGTLVTVSS
VL: DIVMTQSPDSLAVSLGERATINCKASQSVDYDGDSYMNWYQQKPGKAPKLLIYGASNLESGIPDRFSGSGSGTDFTLTISRLEPEDAASYYCQQSNEDPFTFGQGTKLEIKR
notes: Human IgG1/kappa; lead variant, tested as HEK supernatant and as protein purified from CHO; also called H5K2
B8: in assay [1], the concentration for a half-maximal effect (EC50) stood at 0.017 µg/mL and the “Max. Binding (MFI)” value is 36900 MFI. Besides, in assay [2], the Kd came to 0.934 nM, the “Relative KD” value was 0.6 and the koff worked out at 0.00125 s⁻¹. In assay [3], the Kd is 0.892 nM, the “Relative KD” value was determined as 0.67 and the koff was 0.00123 s⁻¹.
